Test results from the nanobody polyreactivity screen of Harvey et al. (2022).

Assay: yeast display, Sf9 membrane polyspecificity reagent, FACS + sequencing; frameworks hold sequencing errors
Outline: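 In a synthetic yeast display library (Saccharomyces cerevisiae BJ5465), nanobody expression was induced with galactose for 36–48 hours. FACS gates were set low and high (top ~1%) using anti-HA fluorescence for expression and streptavidin fluorescence for binding of the Sf9 membrane reagent. Each polyreactivity label is drawn from the gate of origin.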

QVQLVESGGGLVQAGGSLRLSCADSGRIFYYYTMGWYRQAPGKERELVARINSSGSTNLRRLCEGALHNFTRQCEEYRLFTDEQPETGRYRVYYCNADTKRSSREYDYWGQGTQVTVSS
polyreactivity (PSR sort gate): low polyreactivity

QVQLVESGGGLVQAGGSLRLSCADSGRILIGYTRGWYRQAPGKERELVARINYSGGSTYYADSVKGRFTISRDNAKNTVYLQMNSLKPEDTAVYYCAADVRRGYYTWPPRRVYYWGQGTQVTVSS
polyreactivity (PSR sort gate): high polyreactivity

QVQLVESGGGLVQAGGSLRLSCADSGRTFGVYTMGWYRQAPGKERELVAAISGSGGSTYYADSVKGRFTISRDNAKNTVYLQMNSLKPEDTAVYYCNADQNVDVFYRYRLYDSWGQGTQVTVSS
polyreactivity (PSR sort gate): high polyreactivity

QVQLVESGGGLVQAGGSLRLSCADSGRTFSYNLMGWYSQAPGKESEVVAAISRRGGSTYYADSVKGRFTISRDNAKNTVYLQMNSLKPEDTAVYYCNAVSPSPGGGYWGQGSQVTVSS
polyreactivity (PSR sort gate): high polyreactivity

QVQLVESGGGLVQAGGSLRLSCADSGRTFVTTAMGWYRQAPGKERELVAAIDGGGDRTYYADTVKVRFTISRDYAKYTVYLQMNSLKPEDSAVYYCNKDRGTLYGDMDSWGQGTQVTVSS
polyreactivity (PSR sort gate): low polyreactivity

QVQLVESGGGLVQAGGSLRLSCADSGRTFYPNAMGWYRQAPGKERELVARIRQSGTSTYYADSVKGRFTISRDNAKNTVYLQMNSLKPEDTAVYYCAARYAVGYPPYRYYYWGQGTQVTVSS
polyreactivity (PSR sort gate): high polyreactivity

QVQLVESGGGLVQAGGSLRLSCADSGRTFYPYVMGWYRQAPGKERELVADISWSGGRTYYADSVKGRFTISRDNAKNTVYLQMYSLKPEDTAVYYCCAGYRRRYNYWGQGTQVTVSS
polyreactivity (PSR sort gate): high polyreactivity

QVQLVESGGGLVQAGGSLRLSCADSGRTFYRNAMGWYRQAPGKERELVAAITWSAGSTYYADSVKGRFTISRDNAKNTVYLQMNSLKPEDSAVYYCAKYPSKSYVPGDYWGQGTQVTVSS
polyreactivity (PSR sort gate): low polyreactivity

QVQLVESGGGLVQAGGSLRLSCADSGRTLGYYAKGWYRQAPGKEREVVAAITSGGRTNYADSVKGRFTISRDNAKNTVYLQMNSLKPEDTAVYYCAAARYLSGGYEKYDYWGQGTQVTVSS
polyreactivity (PSR sort gate): low polyreactivity

QVQLVESGGGLVQAGGSLRLSCADSGSIFDIYAMGWYRQAPGKERELVADISWSGGSTYYADSVKGRFTISRDNAKNTVYLQMNSLKPEDTAVYYCAADSSRRIGEDYWGQGTQVTVSS
polyreactivity (PSR sort gate): low polyreactivity

QVQLVESGGGLVQAGGSLRLSCADSGSIFGSYATGWYRQAPGKERELVAAITYSGTSTYYADSVKGRFTISRDTAKNTVYLQMNRLKPEDTAVYYCAKRHWFQYRRPDLGRFDYWGQGTQVTVSS
polyreactivity (PSR sort gate): high polyreactivity

QVQLVESGGGLVQAGGSLRLSCADSGSIFRIYAMGWYSQAPGKERELVAAITGRGGSTYYADSVKGRFTISRDNAKNTVYLQMNSLKPEDTAVYYCAAEERYAYRYDYWGQGTQVTVSS
polyreactivity (PSR sort gate): high polyreactivity

QVQLVESGGGLVQAGGSLRLSCADSGSNFRTYVMGWYRQAPGNERDMVAAITNGISTNYADSVKGRFTISRDNAKNSVYLQMISMKPEDTAVYYCAAGFRSTYYTFRFGYWGQGTQVTVST
polyreactivity (PSR sort gate): high polyreactivity

QVQLVESGGGLVQAGGSLRLSCADSGSTFAGNAMGWYRQAPGKERELVAAIVSSTGSTYYADSVKGRFTISRDNAKNTVYLQMNSLKPEDTAVYYCNKTSFLVKLDYWGQGTQVTVSS
polyreactivity (PSR sort gate): low polyreactivity

QVQLVESGGGLVQAGGSLRLSCADSGSTFGKNAMGWYRQAPGKDRELVAAITRRGVSTNYADSEKGRFTISRDNAKNTVYLQMNSLKPEDTAVYYCARGSELGYYAWVYYLGQGTQVTVSS
polyreactivity (PSR sort gate): high polyreactivity

QVQLVESGGGLVQAGGSLRLSCADSGSTFRRNVMGWYRQAPGKERELVASIRSGGTTNYADSVKGRFTISRDNAKNTVYLQMNSLKPEDTAVYYCAAARSRGYYRASAVVLYGYWGQGTQVTVSS
polyreactivity (PSR sort gate): high polyreactivity

QVQLVESGGGLVQAGGSLRLSCADSGSTFRYYVMGWYRQAPGKERELVARITSAASTNYADSVKGRFTISRDNAKNTVYLQMNSLKPEDTAVYYCAARKYGSRYRLKYDYWGQGTQVTVSS
polyreactivity (PSR sort gate): high polyreactivity

QVQLVESGGGLVQAGGSLRLSCADSGSTFVNYAMGWYRQAPGKERELVAAISSTGGSTYYADSVKGRFTISRDNAKNTVYLQMNSLKPEDTAVYYCAAYRYFKMGYWGQGTQVTVSS
polyreactivity (PSR sort gate): high polyreactivity

QVQLVESGGGLVQAGGSLRLSCADSGSTFWPYAMGWYRQAPGKESEVVAAISSSGGSTYYADSVQGRFTISRDNAKNTVYLQMNSLKPEDTAVYYCNKDYHRPFGGGSKGDYWGQRTQVTVSS
polyreactivity (PSR sort gate): low polyreactivity

QVQLVESGGGLVQAGGSLRLSCADSGTTVIFNAMGWYRQAPGKERELVGAISWRLGRTYYAYSVKGRFTISRDNAKNTVYLQMNSLTPEDTAVYYCARDYSRHKGDYWGQGTQVTVSS
polyreactivity (PSR sort gate): low polyreactivity

QVQLVESGGGLVQAGGSLRLSCADSGYIFEVYAMGWYRPAPGKERELVAAIDYSDGTTYYADSVKGRFTISRDNAKNTVYLQMNSLKPEDTAVYYCAADFPGQHYDYWGQGTQVTVSS
polyreactivity (PSR sort gate): low polyreactivity

QVQLVESGGGLVQAGGSLRLSCADSVFIFYLNAMGWYRQAPRKERELVATITNRGGSTYFADSVKGRFTISRDNAKNTVYLQMNSLKPEDTAVYYCAARTRERYSKPYFYRRFGYWGQGTQVTVSS
polyreactivity (PSR sort gate): low polyreactivity

QVQLVESGGGLVQAGGSLRLSCADTGRIFTRYAMGWYRQAPGKERELVASIRSGGSTYYADSVKGRFTISRDNAKNTVYLQMNSLKPEDTAVYFCAKGTFDLHYRKRYNYWGQGTQVTVSS
polyreactivity (PSR sort gate): low polyreactivity

QVQLVESGGGLVQAGGSLRLSCADYGYIFVGNAMGCYRQAPGKDRELVAAINSGGSTNYADSVKGRFTISRDNEKNTVYLQMNSLKPEDTAVYYCNAEAPRYNYGRMDYLGQGTQVTVSS
polyreactivity (PSR sort gate): low polyreactivity

QVQLVESGGGLVQAGGSLRLSCAGSGFIFTDYAMGWYRQAPGKERELVATISWSGSSTYYADSVKGRFTISRDNAKNTVYLQMNSLKPEDTAVYYCAAEFWYTYPYLVDYWGQGTQVTVSS
polyreactivity (PSR sort gate): low polyreactivity

QVQLVESGGGLVQAGGSLRLSCAGSGFILGYNAMGWYRQAPGKERELVAVIDSIGDGTYYADSVKGRFTISRDNAKNTVYLQMISLKPEDTAVYYCDVDDYYEMDYWGQGTQVTVSS
polyreactivity (PSR sort gate): low polyreactivity

QVQLVESGGGLVQAGGSLRLSCAGSGFTFKWYAMGWYRQAPGKERELVAGISRGGTTNYADSVKGRFTISRDNAKNTVYLQLNSLKPEDTAVYYCAKTSYVSYRGLTYYYWGQGTQVTVSS
polyreactivity (PSR sort gate): high polyreactivity

QVQLVESGGGLVQAGGSLRLSCAGSGIIFAWYAMGWYRQAPGKERELVAAITSGGGSTYYADSVKGRFTISRDNAKNTVYLQMNSLKPEDTAVYYCAADYQTIGWGYDYWGQGTQVTVSS
polyreactivity (PSR sort gate): low polyreactivity

QVQLVESGGGLVQAGGSLRLSCAGSGIIFFPYAMGWYRPAPGKERELVASINISDSSTYYADSVKGRFTISRDNAKNTVYLQMNSLKPQDTAVYYCAADNRGDSWYWHGYWGQGTQVTVSS
polyreactivity (PSR sort gate): low polyreactivity

QVQLVESGGGLVQAGGSLRLSCAGSGNIFVFYVMGWYRQAAGKERELVASISSTGNTYYADSVKGRFTISRDNAKNTVYLQMNSLKPEDTAVYYGAADSHQNVSGWLRWPRMDYWGQGTQVTVSS
polyreactivity (PSR sort gate): low polyreactivity

QVQLVESGGGLVQAGGSLRLSCAGSGSIFGRYVVGWYRLAPGKEREFVAAITYSGSSTYYADSVKWRFTISRDNAKNTVYVQINSLKPEDTAVYYCNTYPRSYYWMGYWGQGTQVTVSS
polyreactivity (PSR sort gate): high polyreactivity

QVQLVESGGGLVQAGGSLRLSCAGSGSIFPFYVMGWYRQAPGKEREFVATISSRGGSTYYADSVKGRFTISRDNAKNTVYLQMNSLKPEDTAVYYCAAGWYRTDWGQRLHTYYYWGQGTQVTVSS
polyreactivity (PSR sort gate): high polyreactivity

QVQLVESGGGLVQAGGSLRLSCAGSGSNFDVYTMGWYRKAPGKERELVAAINTGGGSTYYADSVKGRFTISRDNAMNTVYLQMNSLKPEDTAVYYCAASVYHYGPLYYWRQGTQVTVSS
polyreactivity (PSR sort gate): low polyreactivity

QVQLVESGGGLVQAGGSLRLSCAGSGSTFDGNAMGWYRQAPGKDRELVAAITSGGSTNYADSVKGRFTISRDNAKNTVYLQMNSLKPEDTAVYYCAADTVSFSILYDYWGQGTQVTVSS
polyreactivity (PSR sort gate): low polyreactivity

QVQLVESGGGLVQAGGSLRLSCAGSGSTFWVNDMGWSRQAPGKERELVASITISTGATYYADSVKGRFTISRDTAKNTVYVQINSLKPEDTAVYYCNVEFENSGWKSFDYWGQGTQVTVSS
polyreactivity (PSR sort gate): low polyreactivity

QVQLVESGGGLVQAGGSLRLSCAGYGLTFEYYTMGWYRQAPGKGRELVAAITSSGGSTYYADSVKGRFTISRDNSKNTFYLQMISLKPEDTAVYYCNAYLTYEFPSYDYWGQGTQVTVSS
polyreactivity (PSR sort gate): low polyreactivity

QVQLVESGGGLVQAGGSLRLSCAPCGSIFPAYTMGWYRRAPGKERELVAAISRRGGSTYYADCVKGRFTISRDNEKNTVYLQMNRLKPEDTAVYDCAKVPDYRFEYWGQGSQVTVSS
polyreactivity (PSR sort gate): high polyreactivity

QVQLVESGGGLVQAGGSLRLSCAPSARTFVYNAMGWYRQAPGKERELVAAIDGGGDRTYYADSVKGRFTISRDNAKYTVYIQMYSLKPEDTAVYYCARDPGDTYYYSYPEGDYWGQGTQVTVSS
polyreactivity (PSR sort gate): low polyreactivity

QVQLVESGGGLVQAGGSLRLSCAPSGFIFVSNAMVWYRQEPGKERELFADITSRGDSTYYADSVKGRFTISRDNAKNTVYLQMNSLKPEDTAVYYCAVDQLYFPWSFSWYGYWGQGTQVTVSS
polyreactivity (PSR sort gate): low polyreactivity

QVQLVESGGGLVQAGGSLRLSCAPSGFIITYFGMGWYRQAPGKERELVAAISSRGGSTYYADSVKGRFTISRDTAKNTVYLQMNSLKPEDTAVYYFNTDSYRWTFSNRRYDYWGQGTQVTVSS
polyreactivity (PSR sort gate): high polyreactivity

QVQLVESGGGLVQAGGSLRLSCAPSGFSIIGNAMGWYRQAPGKERELVAAISRRGGSTYYADSVKGRFTISRDNAKNTVYLQLNSLKPEDTAVYYCATDPGARVHYPTGDYWGQGTQVTVSS
polyreactivity (PSR sort gate): high polyreactivity

QVQLVESGGGLVQAGGSLRLSCAPSGFTFRYYAMGWYRQAPGKERELVAAISWSVGSTYYADSVKGRFTISRDNAKNTVYLQMNSLKPEDTAVYYCNAAWPGYISNRLGYDYWGQGTQVTVSS
polyreactivity (PSR sort gate): high polyreactivity

QVQLVESGGGLVQAGGSLRLSCAPSGFTFVFYAMGWYRQAPGKERELVAAISSRGGSTYYADSVKGRFTISRDNAKNTVYLQMNSLKPEDTAVYYCNVVSTYWTTYEEYYWGQGTQVTVSS
polyreactivity (PSR sort gate): high polyreactivity
